{"source": "patent US9315544B2", "about": "“Method of treating eosinophilia by administering an immunomodulating peptide” (National Tsing Hua University, priority 2012, dated 2016)", "molecules": {"B1": {"name": "ECP: eosinophil cationic protein, recombinant; marker protein of asthma used as stimulus (protein, UniProt P12724 28-160, looked up)", "Eosinophil cationic protein": "RPPQFTRAQWFAIQHISLNPPRCTIAMRAINNYRWRCKNQNTFLRTTFANVVNVCGNQSIRCPHNRTLNNCHRSRFRVPLLHCDLINPGAQNISNCTYADRPGRRFYVVACDNRDPRDSPRYPVVPVHLDTTI"}, "B2": {"name": "IL-4: a dominant cytokine regulating CCL11, used as stimulus (protein, UniProt P05112 25-153, looked up)", "Interleukin-4": "HKCDITLQEIIKTLNSLTEQKTLCTELTVTDIFAASKNTTEKETFCRAATVLRQFYSHHEKDTRCLGATAQQFHRHKQLIRFLKRLDRNLWGLAGLNSCPVKEANQSTLENFLERLKTIMREKYSKCSS"}}, "format_in_all_cases": "cell-based", "key": {"[1]": {"system": "CCL11", "assay": "Cytokine mRNA expression analysis by quantitative real-time PCR (CCL11)", "conditions": "5 μM ECP, Beas-2B cells, relative to mock-treated", "procedure": "(§1) FIG. 1A-1B illustrates immunomodulatory effect of CMP on transcription of cytokine. Beas-2B cells were starved with serum free medium for 24 h, followed by stimulation with refold 5 μM ECP or 5 μM CMP or co-treatment with 5 μM ECP and 5 μM CMP at 37° C. for (A) 6 h and (B) 12 h, respectively. The mRNA quantities of CCL11, CCL24 and CCL26 were determined by real-time PCR. Beas-2B cells without protein treatment were used as control. […] The data represented at least three independent experiments and the error bar was shown as standard deviation (SD).\nFor inflammatory cytokine expression analysis, Beas-2B cells were stimulated with three different conditions: 1) 5 μM ECP, 2) 5 μM CMP and 3) co-incubated with 5 μM ECP and 5 μM CMP at 37° C. for 6 and 12 h. After incubation, total RNAs were extracted with RNA TRIzol reagent (Invitrogen, Inc) and reverse transcribed with MoMLV-reverse transcriptase (Promega, Madison, Wis.). SYBR Green-based quantitative real-time PCR will be used to quantify the gene of interest, relative expression ratios of genes of interest were normalized to glyceraldehyde-3-phosphate dehydrogenase (GAPDH) transcripts. Changes in cytokine expression were measured by quantitative real-time PCR (qRT-PCR) employing the StepOne™ amplification and detection system (Life Technologies Corporation). Data were analyzed by application of the StepOne™ quantification program software (version 2.22, Life Technologies Corporation) and expressed as means±S.D. Significance analysis was carried out by a two-sample unequal variance t-test with two-tailed distribution (post test). Significance was set as P<0.05.\nECP, the best known marker protein of asthma, is involved in triggering cytokine expression in bronchial epithelial cells. Real-time PCR analysis was carried out to quantify expression levels of indicated cytokines upon treatment with recombinant ECP in the presence and absence of CMP Bronchial epithelial Beas-2B cells were separately cultured in serum-free medium in the presence of 5 μM ECP, 5 μM CMP and both 5 μM ECP and 5 μM CMP for 6 and 12 h to monitor cytokine and chemokine gene modulation using real-time quantitative PCR. Untreated Beas-2B cells incubated at the same condition for 6 h and 12 h were used as negative controls. Here variation of gene expression levels of chemokines including CCL11, CCL24 and CCL26 was analyzed."}, "[2]": {"system": "CCL26", "assay": "Cytokine mRNA expression analysis by quantitative real-time PCR (CCL26)", "conditions": "5 μM ECP, Beas-2B cells, 6 h, relative to mock-treated", "procedure": "as §1\nFor inflammatory cytokine expression analysis, Beas-2B cells were stimulated with three different conditions: 1) 5 μM ECP, 2) 5 μM CMP and 3) co-incubated with 5 μM ECP and 5 μM CMP at 37° C. for 6 and 12 h. […] SYBR Green-based quantitative real-time PCR will be used to quantify the gene of interest, relative expression ratios of genes of interest were normalized to glyceraldehyde-3-phosphate dehydrogenase (GAPDH) transcripts. Changes in cytokine expression were measured by quantitative real-time PCR (qRT-PCR) employing the StepOne™ amplification and detection system (Life Technologies Corporation). […]\nECP, the best known marker protein of asthma, is involved in triggering cytokine expression in bronchial epithelial cells. […] Here variation of gene expression levels of chemokines including CCL11, CCL24 and CCL26 was analyzed."}, "[3]": {"system": "human CCL11", "assay": "CCL11 protein release from Beas-2B cells by ELISA", "conditions": "37° C., 24 h", "procedure": "FIG. 2 illustrates CCL11 expression in CMP and ECP co-treated Beas-2B cells. Beas-2B cells were starved with serum free medium for 24 h, followed by stimulation with ECP (column 2). Cells were stimulated with PBS as negative control (column 1) and ECP in the absence of CMP (column 2) or presence of 1 μM (column 3), 2.5 μM (column 4), 5 μM (column 5), 10 μM (column 6) CMP at 37° C. for 24 h. CCL11 protein level was determined by ELISA kit employing CCL11 antibody. The data represented mean±SD (standard deviation) of at least three independent experiments. ***, p<0.001; **, p<0.01\nFIG. 3 illustrates CCL11 expression in CMP and IL-4 co-treated Beas-2B cells. Beas-2B cells were starved with serum free medium for 24 h, followed by stimulation with PBS (column 1) or 10 ng/mL IL-4 (column 2-7). Cells were stimulated with 10 ng/mL IL-4 in the absence […] or presence of 1 μM (column 3), 2.5 μM (column 4), 5 μM (column 5) and 10 μM (column 6) CMP at 37° C. for 24 h. CCL11 protein level was determined by ELISA kit employing CCL11 antibody. The data represented mean±SD (standard deviation) of at least three independent experiments. ***, p<0.001 (Stimulation with IL-4 compared with PBS treated Beas-2B cells). *, p<0.05 (Stimulation with indicated concentrations of CMP compared with IL-4 treated Beas-2B cells).\nCCL11 ELISA kit (R&D) is an in vitro enzyme-linked immunosorbent assay for quantitative determination of human CCL11 concentration in cell culture supernatants. This assay employed an antibody specific for human CCL11 coated on a 96-well plate. The wells were incubated with 50 μL standard or sample for 2.5 hours at room temperature. After washing with 1× wash solution five times, 200 μL of CCL11 conjugate were added into each wells for 1 h. After washing, 100 μL TMB One-Step Substrate Reagent were added into each wells at room temperature for 30 minutes. 50 μL of Stop Solution were added into each wells and read at 450 nm by spectrophotometer immediately. Limit of detection in the assay was 5 pg/mL.\nTo investigate whether CMP influenced ECP-mediated CCL11 expression, Beas-2B cells were separately stimulated with 5 μM ECP in the absence of CMP and in the presence of 1 μM, 2.5 μM, 5 μM and 10 μM CMP at 37° C. for 24 h.\nTo further investigate whether CMP influenced CCL11 production from other stimulation in Beas-2B cells, serum-deprived Beas-2B cells were stimulated with 10 ng/mL IL-4, a dominant cytokine regulating CCL11, alone or in the presence of CMP at concentrations 1, 2.5, 5 and 10 μM at 37° C. for 24 h."}}, "data": [{"molecule": "B1", "values": [{"measurement": "CCL11 gene expression level increase", "setting": "[1]; 6 h", "result": 9, "unit": "fold"}, {"measurement": "CCL11 gene expression level increase", "setting": "[1]; 12 h", "result": 2.8, "unit": "fold"}, {"measurement": "CCL26 gene expression level increase", "setting": "[2]", "result": 2, "unit": "fold"}, {"measurement": "CCL11 release", "setting": "[3]; 5 μM ECP alone, Beas-2B cells", "result": 17.8, "unit": "pg/mL"}]}, {"molecule": "B2", "values": [{"measurement": "CCL11 release", "setting": "[3]; 10 ng/mL IL-4 alone, serum-deprived Beas-2B cells", "result": 73.2, "unit": "pg/mL"}]}]}
